Measured values reported in publication PMC9708728.

Biological target: SARS-CoV-2 RBD (R319-F541) with a C-terminal His tag (SARS-CoV-2) (UniProt P0DTC2)
Assay: SEC + other: non-reducing SDS-PAGE

Question: “SARS-CoV-2 RBD (R319-F541) with a C-terminal His tag (from UniProt P0DTC2 319-541) (domain or fragment)” was tested. Which percent dimer did it give?
Answer: 30%

Question: What about the stoichiometry N of the same substance?
Answer: 2
